Measured values: US5866392A, “Cellobiose oxidase, and enzymatic agent and a process for treating paper pulp” (priority 1992, dated 1999)

Experiments:
Test in all cases: Coupled cellobiose oxidase/DCPIP assay for cellulases
Type in all cases: biochemical
Conditions in all cases: other: CBH II; reduced cellodextrin substrate
[1] = substrate: OC[C@@H](O)[C@@H](O[C@@H]1O[C@H](CO)[C@@H](O[C@@H]2O[C@H](CO)[C@@H](O[C@@H]3O[C@H](CO)[C@@H](O)[C@H](O)[C@H]3O)[C@H](O)[C@H]2O)[C@H](O)[C@H]1O)[C@H](O)[C@@H](O)CO
Description: (§1) The ability of the cellobiose oxidase to oxidize cellodextrins by means of an electron acceptor was utilized in an assay for cellulases. […] With this assay the kinetic constants for reduced cellodextrins of 5 different cellulases have been determined (table 2). […] The enzymes show very different substrate specificity, some of them requiring quite long substrates making it impossible to use the umbelliferyl cellobiosides and lactosides available for steady state kinetic. […] The inhibition constants were determined for two cellulases using the developed assay.

[2] = substrate: OC[C@@H](O)[C@@H](O[C@@H]1O[C@H](CO)[C@@H](O[C@@H]2O[C@H](CO)[C@@H](O[C@@H]3O[C@H](CO)[C@@H](O[C@@H]4O[C@H](CO)[C@@H](O)[C@H](O)[C@H]4O)[C@H](O)[C@H]3O)[C@H](O)[C@H]2O)[C@H](O)[C@H]1O)[C@H](O)[C@@H](O)CO
Description: as §1

[3] = substrate: OC[C@@H](O)[C@@H](O[C@@H]1O[C@H](CO)[C@@H](O[C@@H]2O[C@H](CO)[C@@H](O[C@@H]3O[C@H](CO)[C@@H](O[C@@H]4O[C@H](CO)[C@@H](O[C@@H]5O[C@H](CO)[C@@H](O)[C@H](O)[C@H]5O)[C@H](O)[C@H]4O)[C@H](O)[C@H]3O)[C@H](O)[C@H]2O)[C@H](O)[C@H]1O)[C@H](O)[C@@H](O)CO
Description: as §1

B1: CBH II (cellulase) (Mycothermus thermophilus) (protein)
chain: APVVEERQNCAPTWGQCGGIGFNGPTCCQSGSTCVKQNDWYSQCLPGSQVTTTSTTSTSSSSTTSRATSTTRTGGVTSITTAPTRTVTIPGGATTTASYNGNPFEGVQLWANNYYRSEVHTLAIPQITDPALRAAASAVAEVPSFQWLDRNVTVDTLLVETLSEIRAANQAGANPPYAAQIVVYDLPDRDCAAAASNGEWAIANNGANNYKGYINRIREILISFSDVRTILVIEPDSLANMVTNMNVAKCSGAASTYRELTIYALKQLDLPHVAMYMDAGHAGWLGWPANIQPAAELFAKIYEDAGKPRAVRGLATNVANYNAWSISSPPPYTSPNPNYDEKHYIEAFRPLLEARGFPAQFIVDQGRSGKQPTGQKEWGHWCNAIGTGFGMRPTANTGHQYVDAFVWVKPGGECDGTSDTTAARYDYHCGLEDALKPAPEAGQWFQAYFEQLLRNANPPF
B1 showed a Km [1] of 490 µM, a Km [2] of 3 µM and a Km [3] of 4.7 µM.
